Data as given in PMC8396674.
Values joined by “and” are separate entries in the source; they are usually repeats but may differ in a detail not shown here. Identical values can stand only once.

How the values were obtained:
[1] = molecular target: gC1q domain of human otolin-1 (hOtolC1q), wild type (human); experiment: AUC; sedimentation velocity, 0.1, 0.25 and 0.5 mg/mL protein in 10 mM HEPES pH 7.0, 500 mM NaCl, 5% glycerol with 10 mM CaCl2, 20 °C, 50,000 rpm, c(s) analysis; also 0.25 mg/mL with 1 mM DTT
[2] = molecular target: gC1q domain of human otolin-1, natural variant R339S (human); experiment: as above
[3] = molecular target: gC1q domain of human otolin-1, natural variant Q426R (human); experiment: as above
[4] = molecular target: gC1q domain of human otolin-1, natural variant R402P (human); experiment: AUC; sedimentation velocity, 0.1, 0.25 and 0.5 mg/mL protein in 10 mM HEPES pH 7.0, 500 mM NaCl, 5% glycerol with 1 mM EDTA (no Ca2+), 20 °C, 50,000 rpm, c(s) analysis; also 0.25 mg/mL with 1 mM DTT
[5] = molecular target: gC1q domain of human otolin-1, natural variant R402P (human); experiment: AUC; sedimentation velocity, 0.1, 0.25 and 0.5 mg/mL protein in 10 mM HEPES pH 7.0, 500 mM NaCl, 5% glycerol with 10 mM CaCl2, 20 °C, 50,000 rpm, c(s) analysis; also 0.25 mg/mL with 1 mM DTT
[6] = molecular target: gC1q domain of human otolin-1, natural variant R342W (human); experiment: AUC; sedimentation velocity, 0.1, 0.25 and 0.5 mg/mL protein in 10 mM HEPES pH 7.0, 500 mM NaCl, 5% glycerol with 1 mM EDTA (no Ca2+), 20 °C, 50,000 rpm, c(s) analysis; also 0.25 mg/mL with 1 mM DTT
[7] = molecular target: gC1q domain of human otolin-1, natural variant R342W (human); experiment: AUC; sedimentation velocity, 0.1, 0.25 and 0.5 mg/mL protein in 10 mM HEPES pH 7.0, 500 mM NaCl, 5% glycerol with 10 mM CaCl2, 20 °C, 50,000 rpm, c(s) analysis; also 0.25 mg/mL with 1 mM DTT

gC1q domain of human otolin-1 (hOtolC1q), wild type (domain or fragment)
stoichiometry N [1]: 3

gC1q domain of human otolin-1, natural variant R339S (domain or fragment)
stoichiometry N [2]: 3

gC1q domain of human otolin-1, natural variant Q426R (domain or fragment)
stoichiometry N [3]: 3

gC1q domain of human otolin-1, natural variant R402P (domain or fragment)
stoichiometry N [4]: 2 | stoichiometry N [5]: 2

gC1q domain of human otolin-1, natural variant R342W (domain or fragment)
stoichiometry N [6]: 2 and 4 | stoichiometry N [7]: 3
